Assay in all cases: ELISA; binding of recombinant InvL to α5β1 integrin, collagen V, fibrinogen, mucin or BSA (negative control); two biological replicates; protocol based on ref. 50, details in the supplemental material
Background: In an ELISA, binding on a coated surface is turned into a signal by an enzyme label.

Assay [1] addresses α5β1 integrin (UniProt P08648).
In assay [2] the target is collagen V.
Assay [3] addresses fibrinogen.

Sequence of UniProt P08648 (P08648 42-1049, chain 1 of 2): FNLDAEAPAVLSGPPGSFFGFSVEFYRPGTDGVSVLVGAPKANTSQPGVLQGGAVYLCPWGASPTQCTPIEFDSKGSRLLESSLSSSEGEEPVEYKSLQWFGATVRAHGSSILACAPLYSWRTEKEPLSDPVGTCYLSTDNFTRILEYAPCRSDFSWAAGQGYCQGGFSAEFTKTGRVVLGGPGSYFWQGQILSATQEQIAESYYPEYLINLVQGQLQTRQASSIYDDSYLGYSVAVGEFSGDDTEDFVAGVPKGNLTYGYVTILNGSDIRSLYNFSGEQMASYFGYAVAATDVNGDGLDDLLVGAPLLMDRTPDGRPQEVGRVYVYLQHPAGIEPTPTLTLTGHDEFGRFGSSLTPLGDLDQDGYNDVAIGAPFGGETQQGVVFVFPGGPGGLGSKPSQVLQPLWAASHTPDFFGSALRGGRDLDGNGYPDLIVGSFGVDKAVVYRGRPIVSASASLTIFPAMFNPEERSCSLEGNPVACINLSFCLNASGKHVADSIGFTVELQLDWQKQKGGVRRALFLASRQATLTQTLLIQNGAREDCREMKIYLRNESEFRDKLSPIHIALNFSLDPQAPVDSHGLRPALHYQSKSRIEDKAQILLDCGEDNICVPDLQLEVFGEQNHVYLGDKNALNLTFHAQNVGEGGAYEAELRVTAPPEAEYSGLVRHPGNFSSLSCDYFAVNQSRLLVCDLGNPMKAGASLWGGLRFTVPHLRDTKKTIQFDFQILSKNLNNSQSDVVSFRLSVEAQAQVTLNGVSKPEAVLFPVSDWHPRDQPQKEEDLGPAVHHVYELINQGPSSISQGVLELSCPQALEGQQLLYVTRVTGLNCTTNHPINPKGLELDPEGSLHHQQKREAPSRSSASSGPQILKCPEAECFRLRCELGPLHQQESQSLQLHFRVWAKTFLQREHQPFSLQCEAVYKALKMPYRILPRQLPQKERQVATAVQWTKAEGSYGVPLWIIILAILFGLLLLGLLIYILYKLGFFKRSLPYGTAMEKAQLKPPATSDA
Sequence of UniProt P08648 (P05556 21-798, chain 2 of 2, further chain): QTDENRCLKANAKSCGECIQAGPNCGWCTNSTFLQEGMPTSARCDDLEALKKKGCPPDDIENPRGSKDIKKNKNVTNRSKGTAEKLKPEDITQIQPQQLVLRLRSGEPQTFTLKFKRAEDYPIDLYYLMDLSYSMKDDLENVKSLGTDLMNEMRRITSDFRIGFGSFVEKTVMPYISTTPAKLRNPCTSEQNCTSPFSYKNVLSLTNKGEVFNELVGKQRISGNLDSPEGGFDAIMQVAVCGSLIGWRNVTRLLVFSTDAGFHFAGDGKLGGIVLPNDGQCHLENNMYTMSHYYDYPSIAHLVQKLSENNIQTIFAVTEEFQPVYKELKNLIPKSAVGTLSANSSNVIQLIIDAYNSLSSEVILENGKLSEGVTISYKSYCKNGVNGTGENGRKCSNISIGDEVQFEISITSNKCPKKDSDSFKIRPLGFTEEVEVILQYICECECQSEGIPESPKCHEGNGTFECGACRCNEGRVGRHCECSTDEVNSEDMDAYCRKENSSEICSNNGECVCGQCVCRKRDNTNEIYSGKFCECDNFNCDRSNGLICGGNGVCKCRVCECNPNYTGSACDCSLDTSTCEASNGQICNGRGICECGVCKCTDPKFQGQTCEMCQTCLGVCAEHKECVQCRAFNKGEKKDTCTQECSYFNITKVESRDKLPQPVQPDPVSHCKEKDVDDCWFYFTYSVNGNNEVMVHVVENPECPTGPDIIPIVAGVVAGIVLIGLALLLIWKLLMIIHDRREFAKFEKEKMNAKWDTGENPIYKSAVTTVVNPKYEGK

Regarding “soluble recombinant InvL lacking the N-terminal signal sequence, with a C-terminal His10 tag (natural protein)”, the Kd (as a rule, the concentration at which binding is half-saturated) in assay [1] amounted to 0.38 nM; in assay [2] it was 15000 nM; in assay [3], 0.19 nM.

(Values after PMC9245377.)
